Patent publication US20070031511A1, “Method of treatment” (priority 2003, published 2007)

Target: Ggly receptor on IMGE-5 cells
Assay: cell-based or functional assay

ED50 (nM), proliferation of IMGE cells, thymidine uptake: 1.4 nM
Substance: pentapeptide E5
